# Laboratory results published in patent US20230083243A1 (VEGA THERAPEUTICS, published 2023).
# T1: human Protein S (human, UniProt P07225 42-676)
# T1 construct: also called ProS; ProS1
# T1 sequence: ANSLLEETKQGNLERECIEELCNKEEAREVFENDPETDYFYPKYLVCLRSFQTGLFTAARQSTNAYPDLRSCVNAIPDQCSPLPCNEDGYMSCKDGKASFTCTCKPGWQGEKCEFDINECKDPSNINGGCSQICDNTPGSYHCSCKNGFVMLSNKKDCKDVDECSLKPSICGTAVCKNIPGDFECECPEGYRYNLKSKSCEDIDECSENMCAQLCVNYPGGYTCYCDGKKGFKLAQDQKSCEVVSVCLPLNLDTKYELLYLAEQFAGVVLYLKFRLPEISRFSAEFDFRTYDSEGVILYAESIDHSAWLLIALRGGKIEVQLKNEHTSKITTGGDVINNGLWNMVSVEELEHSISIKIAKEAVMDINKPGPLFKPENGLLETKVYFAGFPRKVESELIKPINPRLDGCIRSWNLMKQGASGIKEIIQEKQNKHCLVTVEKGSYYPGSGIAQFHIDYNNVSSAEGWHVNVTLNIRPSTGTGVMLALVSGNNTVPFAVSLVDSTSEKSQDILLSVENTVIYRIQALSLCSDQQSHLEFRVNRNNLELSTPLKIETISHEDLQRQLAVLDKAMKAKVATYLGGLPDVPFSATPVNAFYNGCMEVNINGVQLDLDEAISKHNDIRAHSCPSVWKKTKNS
# B1: Antibody 3 (antibody, V domains shown)
# VH: EVQLVESGGGLVQPGRSLRLSCAASGFTFDDYAMHWVRQAPGKGLEWVSGITWNSGNIGYADSVKGRFTISRDNAKNSLYLHMNSLRIEDTAFYYCAKGRAVSDTFDIWGQGTMVTVSS
# VL: SYELNQPPSVSVSPGQTASITCSGDKLGDKYASWYQQKPGQSPVVAIYQNSKRPSGIPERFSASNSGNTATLTISGTQALDEADYYCQAWDSSTWVFGGGTKLTVL
# notes: Same variable regions as Antibody 15
# B2: Antibody 9 (antibody, V domains shown)
# VH: QVQLVQSGAEVKKPGSSVKVSCKASGDTFSNHAINWVRQAPGQGLEWMGGYIPIFGTTNSAQKFRGRVTITADKSTNTAYMALSSLRSEDTAVYYCARGGLAGSHYKNYYYDGMDVWGQGTTVTVSS
# VL: not shown
# notes: Same variable regions as Antibody 21
# B3: Antibody 7 (antibody, V domains shown)
# VH: QLQLQESGPGLVKPSETLSLTCTVSGGSISSSSYYWGWIRQPPGKGLEWIGNIYYSGNTYYNPSLKSRVTISVDTSKNQFSLKLSSMTAADTAVYYCARCSGYGYSSGRSYFDYWGQETLVTVSS
# VL: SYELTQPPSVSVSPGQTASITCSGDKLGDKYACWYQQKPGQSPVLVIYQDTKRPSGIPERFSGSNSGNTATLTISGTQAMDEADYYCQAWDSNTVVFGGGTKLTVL
# notes: Same variable regions as Antibody 19
# B4: Antibody 1 (antibody, V domains shown)
# VH: QVQLVQSGAEVKKPGSSVKVSCKVSGGTFSSYSISWVRQAPGQGLEWMGGIIPIFGTTNYAQKFQGRVTITADESTSTAYMDLSSLKSEDTAMYYCEGGRVGADFDYWGQGTLVTVSS
# VL: SSDLTQGPAVSVALGQTVRITCQGDSLRNYYASWYQQKPGQAPVPVIYGKNDRPSGIPDRFSGSISGNTASLTITGAQAEDEAHYYCNSRDSSGNHVVFGGGTKLTVL
# notes: Same variable regions as Antibody 13
# B5: Antibody 43 (antibody, V domains shown)
# VH: QVQLVQSGAEVKKPGASVKVSCKASGYTFTSYYIHWVRQAPGQGLEWMGVTSPSGRSTSFAQKFQGRVTMTRDTSTSAVYMDLDSLRSEDTAVYYCARGGVTIHLERRGYFDYWGQGTLVIVSS
# VL: not shown
# notes: Same variable regions as Antibody 44
# B6: Antibody 27 (antibody, V domains shown)
# VH: QVQLQQSGPGLVKPSQTLSLTCAISGDSVSNNNAAWNWIRQSPSRGLEWLGGTYYRSKWYNDYAVSVKSRIIINPVTSKNQFSLQLNSVTPEDTAVYYCARGSSWYRFFDYWGQGTLVTVSS
# VL: EIVLTQSPGTLSLSPGERATLSCRASQSVGSSYLAWYQQKPGQAPRLLISGASGRATGIPDRFSGSGSGTDFTLTISRLEPEDFTVYYCQQYGSSPYTFGQGTKLEIK
# notes: Same variable regions as Antibody 33
# B7: Antibody 6 (antibody, V domains shown)
# VH: QVQLQESGPGLVKPSETLSLTCTVSGGSISNYYWNWIRQPPGKGLEWIGYIYYIGITDYNPSLKSRVTISVDTSKNQFSLKVTSVTAADTAVYYCAALSGDHAFDIWGQGTLVTVSS
# VL: not shown
# notes: Same variable regions as Antibody 18
# B8: Antibody 28 (antibody, V domains shown)
# VH: QVQLQQSGTELVRPGTSVKMSCKAAGYTFTNHWIGWVKQRPGHGLEWIGDIYPGGGYTNYNEKFKGKASLTADTSSTTAYMQLSSLTSEDSAIYYCSRFGDQNWAWFAYWGQGTLVTVSA
# VL: DIQMNQSPSSLSASLGDTITITCRASQNIHMWLSWYQQKPGNIPKLLIFKTSNLHTGVPSRFSGSGSGTDFTLTISSLQPEDIATYYCLQGQSYPFTFGGGTKLEIK
# B9: Antibody 12 (antibody, V domains shown)
# VH: QVQLQESGPGLVKPSETLSLTCGVSGGSISSTNWWSWVRQPPGKGLEWIGEIYQTGSTDYDPSLKSRVTISIDKSKNQFSLKLYSVTAADTAVYYCARRFGELDYWGQGTLVTVSS
# VL: EIVMTQSPATLSVSPGERATLSCRASQSVTSNLAWYQQKPGQAPRLLIYDASTRATGIPARFSGSGSGTEFTLTISSLQSEDFAIYYCQQYNNWPTFGQGTRLEIK
# notes: Same variable regions as Antibody 24
# B10: Antibody 4 (antibody, V domains shown)
# VH: QVQLVESGGGVVQPGRSLRLSCAASGFTFSTYGFHWVRQPPGKGLEWVAVIYYDGINKYYADSVKGRFTISRDNSKNTLFLQMNSLRAEDTAVYYCAESDLDYWGQGTLVTVSS
# VL: EIVLTQSPATLSLSPGERATLSCRASQSVSIYLAWYQQKPGQAPRLLIYDASNRATGIPARFSGSGSGTDFTLTISSLEPEDFAVYYCQQRSNWPLTFGPGTKVDIK
# notes: Same variable regions as Antibody 16
# B11: Antibody 2 (antibody, V domains shown)
# VH: QVQLQESGPGLVKPSQTLSLTCTVSGGSITSDGYHWSWIRQYPGKGLDWIGYIYYTGNTYYNPSLKSRVTISVGTSQNQFSLKLISVTAADTAVYYCARRLSTGPYFDYWGQGTLVTVSS
# VL: QSALTQPASVSGSPGQSITISCTGTSSDVGGYEFVSWYQHHPGKAPKLMIYDVSSRPSGVSNRFSGSKSGNTASLTISGLQAEDEADYYCSSYTRSSTVVFGGGARLTVL
# notes: Same variable regions as Antibody 14
# B12: Antibody 8 (antibody, V domains shown)
# VH: QVQLQESGPGLVKPSETLSLTCAVSGYSISSGYYWGWIRQPPGKGLDWIGSIYYSGSTYYNPSLKSRVTISVDTSKNQISLKLSSVTAADTAVYYCATTYSDIVTGYYNDAFDIWGQGTMVTVSS
# VL: EIVMTQSPATLSVSPGERATLSCRASQRINSNLAWYQQKPGQAPRLLIYGASTRATGIPARFSGSGSGTEFTLTISSLQSEDFAAYYCQQYDNWPLTFGGGTKVEIK
# notes: Same variable regions as Antibody 20
# Target: T1, human Protein S
# Test: BLI Octet; antibody on anti-human Fc probe; Protein S 7.81-500 nM; 4 mM CaCl2
# Method: (§1) Binding characteristics of the Protein S antibodies were also further characterized using Octet. Using the Octet System (Sartorius), the binding of each antibody to both human and cynomolgus monkey (“cyno” in Table 10) Protein S was determined. The human Fc antibodies were immobilized onto anti-human Fc capture probes by placing the probes into 10 μg/ml antibody solution in 10 mg/ml bovine serum albumin, 20 mM Tris pH 7.0, 150 mM NaCl, and 4 mM calcium chloride. […] Next, the probes were placed into buffer and the dissociation rates were measured.
Binder,Kd [nM],koff [s⁻¹],kon [M⁻¹ s⁻¹]
B1,0.0542,8.86e-06,164000
B2,0.533,0.000162,304000
B3,8.18,0.00141,172000
B4,< 0.001,< 1e-07,169000
B5,1.99,0.000636,320000
B6,0.574,0.000159,277000
B7,1.47,0.000332,226000
B8,6.78,0.00106,156000
B9,7.49,0.00232,309000
B10,2.62,0.000708,271000
B11,< 0.001,< 1e-07,207000
B12,0.514,6.7e-05,131000

# Target: T2, cynomolgus monkey Protein S (cynomolgus monkey)
# T2 construct: also called cyno Protein S
# Test: as above
# Method: as §1
Binder,Kd [nM],koff [s⁻¹],kon [M⁻¹ s⁻¹]
B1,< 0.001,< 1e-07,127000
B2,0.266,4.42e-05,166000
B3,16.9,0.00232,137000
B4,< 0.001,< 1e-07,139000
B5,3.88,0.00104,268000
B6,34.3,0.00233,67900
B7,2.81,0.000394,140000
B8,9.81,0.00106,109000
B9,11.3,0.00291,258000
B10,15.3,0.00308,201000
B11,< 0.001,< 1e-07,154000
B12,1.55,0.000133,85800

# Target: T1, human Protein S
# Test: SPR Biacore X100; antibody captured by anti-human IgG (Fc); Protein S 2-128 nM; 5 mM CaCl2; 1:1 fit
# Method: Binding characteristics of the Protein S antibodies were also determined. Binding interaction analysis was obtained by Surface Plasmon Resonance in a Biacore X100 instrument. The human anti-IgG (Fc) antibody was immobilized to the carboxymethylated dextran membrane on the sensor chip surface (CM5) via the free amine method for a contact time of 420 seconds. Human anti-IgG antibody at 25 μg/mL in 0.15 M NaCl was immobilized to 9,785 RU in 10 mM sodium acetate pH 5.0.
# Dilution and running buffer were as follows: Hbs−EP+5 mM CaCl₂. Regeneration was obtained by 3 M MgCl₂. Binding constants (ka, kd, and KD) were determined using the Biacore X100 evaluation software, assuming a 1:1 interaction of Protein S and the tested monoclonal antibody under investigation.
Binder,Kd [nM],koff [s⁻¹],kon [M⁻¹ s⁻¹]
B1,2.24,0.000569,253000
B2,15.9,0.00336,212000
B3,20,0.005,252000
B4,1.33,0.00039,290000
B7,5.79,0.0016,280000
B9,14.4,0.00947,657000
B10,4.13,0.00165,399000
B11,1.63,0.00056,346000
B12,6.25,0.000823,132000
